Measurements taken from publication PMC3137634, “Concurrent Proinflammatory and Apoptotic Activity of a Helicobacter pylori Protein (HP986) Points to Its Role in Chronic Persistence” (PLoS ONE, 2011).

Target: T1, recombinant HP986 (Helicobacter pylori, UniProt O25636 1-237)
T1 construct: HP986 (HP0986), protein of unknown function from the plasticity zone of Helicobacter pylori; PCR product spanning 711 bp cloned at XhoI/HindIII of pRSETA; about 29 kDa; 711 bp would be 237 codons with the stop or without; also called rHP986; HP0986; source: E. coli BL21 (DE3), purified (Ni2+-NTA, size exclusion chromatography)
T1 sequence: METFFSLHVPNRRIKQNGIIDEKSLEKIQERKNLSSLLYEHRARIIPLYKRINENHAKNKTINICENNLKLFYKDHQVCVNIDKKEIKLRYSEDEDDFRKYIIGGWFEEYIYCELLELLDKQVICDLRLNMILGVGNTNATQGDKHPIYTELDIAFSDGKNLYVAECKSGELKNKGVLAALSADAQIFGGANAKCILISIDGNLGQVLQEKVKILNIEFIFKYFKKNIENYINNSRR
Test: SPR; BIAcore 3000; human TNFR1/Fc amine-coupled to a CM5 chip up to 150 RU; rHP986 at 100, 400, 800 and 1200 nM in PBS, 30 µl/min; 1:1 Langmuir model
Conditions: both partners purified

B1: Human TNFR1/Fc (Fc fusion, UniProt P19438 30-211, looked up)
chain: LVPHLGDREKRDSVCPQGKYIHPQNNSICCTKCHKGTYLYNDCPGPGQDTDCRECESGSFTASENHLRHCLSCSKCRKEMGQVEISSCTVDRDTVCGCRKNQYRHYWSENLFQCFNCSLCLNGTVHLSCQEKQNTVCTCHAGFFLRENECVSCSNCKKSLECTKLCLPQIENVKGTEDSGTT
notes: soluble human TNFR1 (tumor necrosis factor receptor 1) fused to Fc; Commercial TNFR1/Fc chimeras usually hold the extracellular domain joined to human IgG1 Fc at the C-terminus; also called soluble humanTNFR1; hu TNFR1; source: bought: Sigma, USA
Binder B1 has a koff of 0.000908 s⁻¹ and a kon of 12600 M⁻¹ s⁻¹.
